Drawing on patent US20150290315A1, this text covers entry of virus into A10 cells (plaques counted after citrate wash) and entry of virus into C10 cells (plaques counted after citrate wash) for 1 substance.

For assay [1], the target named is HVEM stably expressed on B78-H1-A10 cells (UniProt Q92956). The assay is described as follows: cell-based or functional assay.
For assay [2], the target named is nectin-1 stably expressed on B78-H1-C10 cells (UniProt Q15223). The assay is described as follows: cell-based or functional assay.
UniProt Q15223, sequence (Q15223 31-517 limits assumed): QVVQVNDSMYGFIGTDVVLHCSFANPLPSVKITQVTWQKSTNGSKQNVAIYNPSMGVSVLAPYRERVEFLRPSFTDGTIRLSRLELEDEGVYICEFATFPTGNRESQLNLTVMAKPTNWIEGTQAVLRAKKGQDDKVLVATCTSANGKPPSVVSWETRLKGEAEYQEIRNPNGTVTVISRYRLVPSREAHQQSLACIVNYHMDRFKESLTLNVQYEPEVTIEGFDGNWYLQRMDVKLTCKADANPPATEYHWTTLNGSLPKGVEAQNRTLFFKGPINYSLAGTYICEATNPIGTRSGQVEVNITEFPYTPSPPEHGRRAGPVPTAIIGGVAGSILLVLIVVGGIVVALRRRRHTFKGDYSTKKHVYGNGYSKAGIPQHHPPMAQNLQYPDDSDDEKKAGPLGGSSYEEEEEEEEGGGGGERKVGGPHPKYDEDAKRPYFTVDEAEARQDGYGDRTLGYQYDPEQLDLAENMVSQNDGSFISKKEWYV

UniProt Q92956, sequence (Q92956 39-283 limits assumed): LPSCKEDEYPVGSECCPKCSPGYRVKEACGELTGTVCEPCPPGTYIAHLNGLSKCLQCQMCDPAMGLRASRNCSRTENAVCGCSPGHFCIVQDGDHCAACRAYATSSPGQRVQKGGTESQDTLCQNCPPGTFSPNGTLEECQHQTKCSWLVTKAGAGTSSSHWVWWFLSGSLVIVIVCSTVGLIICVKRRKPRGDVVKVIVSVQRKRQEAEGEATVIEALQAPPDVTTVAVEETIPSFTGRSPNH

In turn, “HSV-1 strain KOS glycoprotein D with the A3C mutation, as carried by the KOS-gDA3C virus (from UniProt A1Z0Q5 26-394)” displayed an entry of virus into A10 cells (plaques counted after citrate wash) in assay [1] of 50 % reduction. This substance also displayed an entry of virus into C10 cells (plaques counted after citrate wash) in assay [2] of 70 % reduction.
